Test results from patent US11110171B2, “PD-1 related cancer therapy” (New York University, priority 2017, dated 2021).

Biological target: T1, SHP2 binding to GST-PD1 (Homo sapiens, UniProt Q06124)
T1 construct: endogenous in cells; host or cells: SAP-knockdown Jurkat T cells (SHP2); GST-PD-1 tail made in BL21 E. coli
T1 sequence (Q06124 2-593 limits assumed): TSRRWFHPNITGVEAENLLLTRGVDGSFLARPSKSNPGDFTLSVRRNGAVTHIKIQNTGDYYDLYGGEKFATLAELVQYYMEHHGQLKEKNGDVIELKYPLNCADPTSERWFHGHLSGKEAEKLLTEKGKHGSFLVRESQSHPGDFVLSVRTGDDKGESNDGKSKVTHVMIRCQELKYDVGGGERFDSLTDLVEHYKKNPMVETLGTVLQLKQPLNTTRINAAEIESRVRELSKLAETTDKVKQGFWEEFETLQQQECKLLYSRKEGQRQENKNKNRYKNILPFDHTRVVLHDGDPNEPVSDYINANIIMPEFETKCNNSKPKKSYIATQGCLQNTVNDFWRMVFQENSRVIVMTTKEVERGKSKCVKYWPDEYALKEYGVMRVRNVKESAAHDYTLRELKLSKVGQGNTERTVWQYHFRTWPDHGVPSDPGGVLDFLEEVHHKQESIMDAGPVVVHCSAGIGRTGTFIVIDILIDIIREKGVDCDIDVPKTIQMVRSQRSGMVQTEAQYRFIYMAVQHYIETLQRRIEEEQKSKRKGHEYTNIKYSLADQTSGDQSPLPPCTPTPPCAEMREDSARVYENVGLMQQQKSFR
T1 sequence (Q15116 192-288 partner limits assumed): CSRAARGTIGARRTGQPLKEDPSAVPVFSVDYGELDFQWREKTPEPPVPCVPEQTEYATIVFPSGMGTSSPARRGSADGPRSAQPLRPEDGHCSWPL
Assay: Affinity purification of SHP2 by GST-PD1 with increasing concentrations of recombinant SAP
Details: increasing concentrations of recombinant SAP added to SAP KD Jurkat cell lysate
Experimental: FIG. 3. SAP is indirectly associated with PD-1. (ai) Pervanadate treated Jurkat T cells were transiently transfected with GFP-tagged PD-1 or GFP alone; Whole cell lysates (WCL) were immunoprecipitated with an anti-GFP antibody (IP: GFP), and samples were analyzed by immunoblotting. (aii) Densitometry values of data shown in ai. (b) Jurkat T cells were transfected with plasmids directing expression of the indicated fluorescent proteins and after 24 hours cells were stimulated with anti-CD3 antibodies and recombinant PDL2, followed by live-imaging. Bar, 10 μm. […] (di) Jurkat T cells were transfected with different versions of GFP-tagged PD-1, as indicated, followed by treatment with pervanadate; Whole-cell lysates (Input) were immunoprecipitated with an anti-GFP antibody (IP: GFP), and samples were analyzed by immunoblotting. […] (ei) 293T cells were transfected with plasmid directing expression of GFP-SAP or a control GFP plasmid, followed by treatment with pervanadate; Lysates were pulled-down with the GST-tagged PD-1 and samples were analyzed by immunoblotting. […] (gi) SHP2 KD and scrambled control Jurkat T cells were transfected with GFP-tagged PD-1, followed by treatment with pervanadate; Lysates were immunoprecipitated with an anti-GFP antibody (IP: GFP), and samples were analyzed by immunoblotting. […] Samples were analyzed by immunoblot. […]

B1: SAP: Recombinant human SAP (His tagged), signaling lymphocytic activation molecule-associated protein, purchased from Abcam (protein, UniProt O60880 1-128, looked up)
SH2 domain-containing protein …: MDAVAVYHGKISRETGEKLLLATGLDGSYLLRDSESVPGVYCLCVLYHGYIYTYRVSQTETGSWSAETAPGVHKRYFRKIKNLISAFQKPDQGIVIPLQYPVEKKSSARSTQGTTGIREDPDVCLKAP
modifications: His tag
  interference with the affinity-purification of SHP2 by GST-PD1: did not interfere
